Measurements as given in paper PMC5531264.
Where two headings read alike, the source gives them in different places.

Key:
Assay in all cases: fluorescence anisotropy
SAMHD1 wild-type [1] = molecular target: T1, SAMHD1 wild-type (human, UniProt Q9Y3Z3 1-626)
SAMHD1 wild-type [2] = molecular target: T1, SAMHD1 wild-type; remark: listed apart in the source
[3] = molecular target: T2, SAMHD1 C-terminal peptide (human, UniProt Q9Y3Z3 583-626)
T2 chain: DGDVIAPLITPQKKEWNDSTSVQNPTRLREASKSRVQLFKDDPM

SAMHD1 RK = SAMHD1 RK (human, UniProt Q9Y3Z3 1-626, R333E;K336E)
SAMHD1 RR = SAMHD1 RR (human, UniProt Q9Y3Z3 1-626, R371E;R372E)
SAMHD1 RKRR = SAMHD1 RKRR (human, UniProt Q9Y3Z3 1-626, R333E;K336E;R371E;R372E)

B1: FAM-dT60 (ssDNA)
DNA: TTTTTTTTTTTTTTTTTTTTTTTTTTTTTTTTTTTTTTTTTTTTTTTTTTTTTTTTTTTT
- apparent K (half saturation) (SAMHD1 wild-type [1]): 700 ± 100 nM
- apparent K (half saturation) (SAMHD1 wild-type [2]): 500 ± 100 nM
- Kd [3]: 54 ± 5 µM
- apparent K (half saturation) (SAMHD1 RK): 7.6 ± 0.4 µM
- apparent K (half saturation) (SAMHD1 RR): 15 ± 1 µM
- apparent K (half saturation) (SAMHD1 RKRR): 30 ± 2 µM
